Data reported in the DeepSol protein solubility set.

assay: soluble on expression in E. coli; label from the status in PepcDB or PDB records

Sequence | soluble on expression in E. coli
MGSDKIHHHHHHMENVPLLQVNKMSKAFSNQLVLKEVNLQVERGDIYALVGGNGAGKSTLMKILTGLYSYDDGEMYVKGTKQQFANPSEAHRKGIYLIPQEPLIFPHMTIEENICIGLTEKKKKLRVQIEQLINSLGWDIDLNELGGSLSIAQQQLVEIVRGLIREAEILILDEPTSTLTTHEIKSLFVLMKSLQEKGIGMIYITHRFPEIFEIANKVAILRDGMIVSQGDVCDYTYDMLMEGLLPKGYKQKEKIEVVQETARTKKILEVIDITSHAFKNISFTVHADEIVGVAGIIGSGRTELAEAIFGLKTIKSGSILLEGKSIDACSLHKRLEKGLVYVPEDRARNGIFSIASVKENIAAASLQQNNRFFINQEKESALVNSFIEQFRIVVQNMNEELVSLSGGNQQKVVLAKYLACNPKIIILDEPTRGIDAKARIEVYETIEKMKREGLAILLISSDVEEIVQLANRVYVMRNGRFVSYMEKEQLSVNEVTRLAYGGVAE | not soluble
MNDNTHTLPPRHLSVAPMLDWTDRHYRYLARQITRNTWLYSEMVNAGAIVYGDKDRFLMFNEGEQPVALQLGGSDPSDLAKAAKAAEAYGYNEVNLNCGCPSPRVQKGSFGACLMNEVGLVADCLNAMQDAVKIPVTVKHRIGVDRQTEYQTVADFVGTLRDKTACKTFIVHARNAWLDGLSPKENRDVPPLKYDYVYRLKQEFPGLEIIINGGITTNEAIAGHLQHVDGVMVGREAYHNPMVMREWDRLFYGDTRSPIEYADLVQRLYTYSQAQIQAGRGTILRHIVRHSLGLMHGLKGARTWRRMLSDATLLKDNDGSLILEAWKEVERANMRE | not soluble
DLYFQGGSGMQCEEKLEVFENGFKDEKFNVEVKFYGNDARKVLLAMIYELYLPEYGREYVYPFECAKEFWNIYLEGEEIQDEEFQLKPIKFTSEQVIKKLQEEIKKIKPPLEIKIEEAKIYKTKEGYLAVGNYFILDPRGRLFIFNKPSIANKILKYIWKW | soluble
MGSDKIHHHHHHMRNYQIPNLFNLGDLETKKVLKAANQAHQALGELKGVVQTVPNQNILLGTLPLQEAKESSEIENIITTQDDLYQSNVATQQFTTIAAKEVHHYAQAVSFGFSEVRKTELITLNLIKQIQAKLEGNNAGFRKQIGTGLVNQRTGQVVYMPPQQPEMIEHYMSVLERFINDSEQIDYDPLVKMAIVHHQFESIHPFYDGNGRTGRIINILYLIQQNLLDTPILYLSRYINRNKDQYYYLLQFVRDHNDWEEWLIFMLNGIAETAKQTVDLINQIKKLMQEHKLLIRNQLPNIYSHELINNLYKYPYTKIDFIAEDCQVHRNTAGKRLEQLVDLGILKKVKIGKENFYINMELYYLLTK | not soluble
MGHHHHHHSHMLRGMARMGGQRRLKALAAPRFWPILRKEYKWAVKPRPGPHPAEKSLPLLLIVRNVLGYAQTAREARKLISEGHFRVDGVVRKDYKFPVGFMDVIEVVDTGEKFRMLPYPVKFFKLHPIPEEEGDLKPVRIENKTTVKGGHVQLNLHDGRNILVRVKDPRNPVEDVYRTMDTLLITVPGQEIKGHIKFGEGAIAIIVGGRNVGRVGVVKSVQKGWGRKRTLVTLEDASGNLFQTSLDYVFVIGLDRPVISLPEGAWK | soluble
MGSDKIHHHHHHMVPARHCHVAVFDQAIVALDIRRSRYFLYDAACARDFADHYLDFKPIDAPRALKPLIADRILVAESPAAARSRIADYRGWSFDAFDSGIWGSRVLGKRDAARFEWLPFWRIVRSAASLKMRGFHALAALDQLDARGAPARGDDASHTVERLLRASIWSPFRITCVQMSLALATHLRRQNVPAQLVIGVRPMPFVAHAWVEVDGRVCGDEPDLKKSYGEIYRTPRCDASAAPFGLAA | not soluble
SPSCSPQQASKAEENGSNSFMHSMVPQLEWQMETTQSLVDSYVAIVNKTVWDLMVGLTPKTIMHLMINNNKEFIFSELLANLYLHGDKNMLMEESAEQAQRS | soluble
KTQGFLTMSRRRISCKDLGHADCQGWLYKKKEKGSFLSNKWKKFWVILKGSSLYWYSNQMAEKADGFVNLPDFTVERASECKKKHAFKISHPQIKTFYFAAENVQEMNVWLNKLGSAVIHQESTTKDEECYSESEQEDPEIAAETPPPPHASQTQSLTAQQASSSSPSLSGTSYSFSSLENTVKTPSSFPSSLSKERQSLPDTVNSLSAAEDEGQPITFAVQVHSPVPSEAGIHKALENSFVTSESGFLNSLSSDDTSSLSSNHDHLTVPDKPAGSKIMDKEETKVSEDDEMEKLYKSLEQASLSPLGDRRPSTKKELRKSFVKRCKNPSINEKLHKIRTLNSTLKCKEHDLAMINQLLDDPKLTARKYREWKVMNTLLIQDIYQQQRASPAPDDTDDTPQELKKSPSSPSVENSI | soluble
PDQCKPPQVTCRSATCAQVNWEVPLSNGTDVTEYRLEWGGVEGSMQICYCGPGLSYEIKGLSPATTYYCRVQALSVVGAGPFSEVVACVTPPS | soluble
WSAEDKHKEGVNSHLWIVNRAIDIMSRNTTLVKQDRVAQLNEWRTELENGIYAANYENPYYDNSTFASHFYDPDNGKTYIPFAKQAKETGAKYFKLAGESYKNKDMKQAFFYLGLSLHYLGDVNQPMHAANFTNLSYPQGFHSKYENFVDTIKDNYKVTDGNGYWNWKGTNPEEWIHGAAVVAKQDYSGIVNDNTKDWFVKAAVSQEYADKWRAEVTPMTGKRLMDAQRVTAGYIQLWFDTYGDR | soluble
MGHHHHHHSHVRSPQNQYPAELMRRFELYFQGPSSNKPRVIREVRADSVGKLVTVRGIVTRVSEVKPKMVVATYTCDQCGAETYQPIQSPTFMPLIMCPSQECQTNRSGGRLYLQTRGSRFIKFQEMKMQEHSDQVPVGNIPRSITVLVEGENTRIAQPGDHVSVTGIFLPILRTGFRQVVQGLLSETYLEAHRIVKMNKSEDDESGAGELTREELRQIAEEDFYEKLAASIAPEIYG | soluble
MKDSSRAELMRKVQETSFACVDMNLYLDNHPDDKNAINTYNSLCNQFAQARYAYENKYGPLTNFGYAPSRCPWQWADQPWPWDREFNYLEHHHHHH | soluble
QIKDHLIIVGFGFSGKTISKAAKAAGIPYLIIEMNPEIVQHEKAKGEKIQYGDATFGAVLEHAGIKNARVLVTGIADSSSTGKIVEKAKELNPNICVIVKVHDLQEMKRLNSMGADEIIPEEYETSVEIFVRLLEKYLVPRENIEK | not soluble
MGSDKIHHHHHHGILKERKLAKKRDEVQRYVLMAADVNLGQGNEFREIFAKSVKPLLINLDTGKVDSDANVLDFDERMAAINPETSSTPKKDIAKIKTRANDARVFKVFDDSGKLSSVVVPFYGKGLWSMIYGYVAVEPDFNTIKGLVVYEHGETPGIGDFVTDPAWLNQWKNKQLFDEKGKFAIRLVKGGVKEGDVHGVDAVSGATMTGRGVQRAMEFWFGVEGFQTFFNQLKTSAVQGEFGGEK | not soluble
MSTMGNEASYPAEMCSHFDNDEIKRLGRRFKKLDLDKSGSLSVEEFMSLPELRHNPLVRRVIDVFDTDGDGEVDFKEFILGTSQFSVKGDEEQKLRFAFSIYDMDKDGYISNGELFQVLKMMVGNNLTDWQLQQLVDKTIIILDKDGDGKISFEEFSAVVRDLEIHKKLVLIV | soluble
GSHMAIDENKQKALAAALGQIEKQFGKGSIMRLGEDRSMDVETISTGSLSLDIALGAGGLPMGRIVEIYGPESSGKTTLTLQVIAAAQREGKTCAFIDAEHALDPIYARKLGVDIDNLLCSQPDTGEQALEICDALARSGAVDVIVVDSVAALTPKAEIEGEIGDSHMGLAARMMSQAMRKLAGNLKQSNTLLIFINQIRMKIGVMFGNPETTTGGNALKFYASVRLDIRRIGAVKEGENVVGSETRVKVVKNKIAAPFKQAEFQILYGEGINFYGELVDLGVKEKLIEKAGAWYSYKGEKIGQGKANATAWLKDNPETAKEIEKKVRELLLSNPNSTPDFSVDDSEGVAETNEDF | soluble
MGSSHHHHHHSSGLVPRGSHMEGRLLLLETPGNTRMSLAYDEAIYRSFQYGDKPILRFYRHDRSVIIGYFQVAEEEVDLDYMKKNGIMLARRYTGGGAVYHDLGDLNFSVVRSSDDMDITSMFRTMNEAVVNSLRILGLDARPGELNDVSIPVNKKTDIMAGEKKIMGAAGAMRKGAKLWHAAMLVHTDLDMLSAVLKVPDEKFRDKIAKSTRERVANVTDFVDVSIDEVRNALIRGFSETLHIDFREDTITEKEESLARELFDKKYSTEEWNMGLLRKEVV | soluble
MSLNATARQEPADLNDPALRARAVTAARGDAPFDMLITGGRLLDTVTGLIRQADIGLVGALISSVHAPASRTDAVEIIDAAGSILTPGLIDTHMHIESSMVTPAEYASAVLPRGVTTIVWDPHEFGNVHGLDGVRWAIEAARSLPLRMILLAPSCVPSAPGLELAGADFDASMITEMLHSSAVGGVAEVMNMRGVIDGDPRMTDIVNAGLAAGKLVCGHARGLEGADLNAFMASGITSDHELTSGADLLAKLSAGLTIELRGSHDHLLQEFVEVLSGLGHLPPTVTLCTDDVFPDELQEGGGLDDVVRRLVRYGMKPEWAIRAATFNAAQRLKRSDLGLVATGRRADIVLFEDLTEFRARLVISGGRIVARNGSMQVAVQQIDTAPLVNSVKLPPLTENDFRIPAKGERVRVATIDRPRFTQWGEAETEVRDGFIVPPAGSAMISVAHRHGKTDGIPRIGFLTGWGEWRGAFCTTVSHDSHNLTVFGGNAGDMALAANAVISAGGGMAVAKDGRIEAMLPLPLSGLVTDASLKDTALAFAGIRKAMEKIVTWKPPYLVFKACFGATLACNVGPHQTDQGIADVVTGKVLENPVLAVWEGHHHHHH | soluble
MGSDKIHHHHHHMRRKIPSTTALVSFEAAARHESFTKAAHELSLTQGAVCRQIGGLEEFLGIELFRRSRRGVKLTEAGLSYSRRVAQQLDAVERDTLSVMGEQGAHAIELAVVPTFGTQWLLPRLKDFQHKHPDVTVHLTNRTRPFLFADTDFDAAIYFGDADWSGTQSHRLMGENSLPVCSPSFLGGRGSLKASELAELPLLQQTTRPYAWRQWFNAQNLNVARDMTGPRYELFSMLAQAAMHDMGVALIPPFLILRELHEKRLVIASISALPSNKAYHLMIPERKVESASLTAFRDWLVNQAHDYSLPQDKEQALV | not soluble
MGKYTEQAKLAAVKEYCAGKAGLRDVAHRHDVDFSCLRQWVAAYQIHGPAALKEKRRQRYSDEFKLAVLKRMHDERLSLRQTAALFDIRQFGIINLWQRLFDEGALNASSKPPKKAGRPRKMTTPLPPVNSSPINDESRSRDELLAEVKQLRMEVDYLKKLDALVQKKQRIAQQKKRKSLEHHHHHH | not soluble
MKPLTYTLVVNGPQYGTQSARNAYLFAKALIEKGHILKSVFFYQDGVLNGSSTHVPANDEFNLLQGWQSLAQSHQVQLETCVAAALRRGVVSEQEASQHGLASHNLAAHFTQAGLGSLAQALLEQDRVVQF | soluble
GAADMPFRWSFMADGKSLIAAQPDDARVIADTEALAGWYGGMTSLAPKQIKLFADGAIYSQLMQVRDPFLDGHKGEWMMDLDQFQRAFRVYWDAGYQLHVHVNGDAGLDRVLDTLETNLRRTPRDDHRTTIVHFAVSGADQVLRIRDLGAIVSANPYYVAALADNYGEVGLGPDRADNMVRLGDVEAAGISWSLHSDMPMAPCDPLFLMWCAVNRVTSSGRVAGPAQRVSAETALRGVTINAAYSLKLEHEIGSIEPGKRANLTILGDNPLTVDPEKIRDIAVIGTVMEGRDFP | not soluble
GAKSEMAFAGKGEISPRAITMWDFSWLERRWPGAGYEDWDQVLDELSERGYNAIRIDAYPHLIAENPMKKWLLKEVWNQQDWGSPDMNEVQVQPNLNLFLSKCKERDIKVGLSSWYRLDVDEVCLKLDTPEKLADCWLTILRSIEEDGLLDTILYVDLCNEWPGDSWAPFFAKTYPNVGWGNWYKEESLRWMKTSLEKMRQVYPDMPFLYSFDHGDVKKYEEVDCSFLDLYEHHIWMAQQNGGEFYKLVGYGYNRFLPDDYKNVVKNAERVYRERPGYWQKLLTDKIELMASVARKNRRPLVTTECWGLVDYKDWPLLKWDWVKDLCELGTITAARTGMWVGVATSNFCGPQFAGMWRDVEWHKRLTSIIRSSPLDESLTKNNEVAAKLLKRL | soluble
